For this data set, the system named is Escherichia coli TOP10. Kind of data set: shrunken log2 fold change of peptide-encoding DNA abundance (4.5 h post-induction vs induction); higher = less antimicrobial activity (less host growth inhibition). The conditions noted are these: time post-induction: 4.5 h; library: site-saturation at positions 5, 18, 19, 20.

The results in this text go back to the supplement of paper PMC9112550, “Optimization of the antimicrobial peptide Bac7 by deep mutational scanning” (BMC Biology, 2022).
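Further: peptides expressed intracellularly from a pBAD plasmid library in pooled LB shake-flask culture, induced with 0.3% L-arabinose, DNA abundance read by NGS, three biological replicates, DESeq2 with apeglm shrinkage.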

Take RRIRIRPPRLPRPRPRPDVKPRP: the “shrunken log2 fold change” value was -0.147.

Consider RRIRWRPPRLPRPRPRPCRHPRP, for which the “shrunken log2 fold change” value came to 0.0955.

For RRIRVRPPRLPRPRPRPFSPPRP, the “shrunken log2 fold change” value was -0.363.

Consider RRIRRRPPRLPRPRPRPTSFPRP, for which the “shrunken log2 fold change” value came to 0.264.

For RRIRCRPPRLPRPRPRPWTDPRP, the “shrunken log2 fold change” value was -0.055.

In the case of RRIRIRPPRLPRPRPRPLNKPRP, the “shrunken log2 fold change” value was -0.398.

For the sequence RRIRSRPPRLPRPRPRPEHEPRP, the “shrunken log2 fold change” value was -0.182.

For the sequence RRIRVRPPRLPRPRPRPTWQPRP, the “shrunken log2 fold change” value was 0.27.

Take RRIRKRPPRLPRPRPRPPKHPRP: the “shrunken log2 fold change” value was 0.723.

As to RRIRSRPPRLPRPRPRPKKEPRP, the “shrunken log2 fold change” value was found to be 0.00678.

In the case of RRIRDRPPRLPRPRPRPETYPRP, the “shrunken log2 fold change” value is 0.217.

On to RRIRRRPPRLPRPRPRPFMRPRP, for which the “shrunken log2 fold change” value was 0.341.

Regarding RRIRMRPPRLPRPRPRPLMYPRP, the “shrunken log2 fold change” value is -0.295.

RRIRRRPPRLPRPRPRPNYVPRP: the “shrunken log2 fold change” value was -0.338.

Regarding RRIRIRPPRLPRPRPRPLDVPRP, the “shrunken log2 fold change” value is -0.0639.

Take RRIRIRPPRLPRPRPRPMKAPRP: the “shrunken log2 fold change” value was -1.03.

For the sequence RRIRHRPPRLPRPRPRPADSPRP, the “shrunken log2 fold change” value is -0.039.

For the sequence RRIRGRPPRLPRPRPRPCFWPRP, the “shrunken log2 fold change” value turned out to be 0.67.

On to RRIRGRPPRLPRPRPRPKCMPRP, for which the “shrunken log2 fold change” value came out at 0.209.

RRIRDRPPRLPRPRPRPGKVPRP: the “shrunken log2 fold change” value was -0.00262.

In the case of RRIRSRPPRLPRPRPRPLQFPRP, the “shrunken log2 fold change” value turned out to be 0.0849.

For the sequence RRIRRRPPRLPRPRPRPIGDPRP, the “shrunken log2 fold change” value is 0.257.

As for RRIRFRPPRLPRPRPRPKGTPRP, the “shrunken log2 fold change” value is -0.429.

As for RRIRDRPPRLPRPRPRPGLVPRP, the “shrunken log2 fold change” value worked out at 0.644.

RRIRYRPPRLPRPRPRPTDDPRP: the “shrunken log2 fold change” value amounted to 0.0131.

For RRIRARPPRLPRPRPRPIIWPRP, the “shrunken log2 fold change” value was -0.419.

As to RRIRCRPPRLPRPRPRPQPHPRP, the “shrunken log2 fold change” value was 0.067.

As to RRIRWRPPRLPRPRPRPQMKPRP, the “shrunken log2 fold change” value was -0.316.

Consider RRIRQRPPRLPRPRPRPADKPRP, for which the “shrunken log2 fold change” value was -0.137.

For RRIRYRPPRLPRPRPRPYCTPRP, the “shrunken log2 fold change” value is -1.54.

Turning to RRIRLRPPRLPRPRPRPKYRPRP, the “shrunken log2 fold change” value came out at 0.0356.

For the sequence RRIRTRPPRLPRPRPRPNDPPRP, the “shrunken log2 fold change” value was -0.149.

In the case of RRIRWRPPRLPRPRPRPDYGPRP, the “shrunken log2 fold change” value is -0.202.

In the case of RRIRTRPPRLPRPRPRPNSQPRP, the “shrunken log2 fold change” value was -0.00223.

For RRIRLRPPRLPRPRPRPHLIPRP, the “shrunken log2 fold change” value is -0.151.

Turning to RRIRIRPPRLPRPRPRPHANPRP, the “shrunken log2 fold change” value is -0.181.

As for RRIRWRPPRLPRPRPRPEWFPRP, the “shrunken log2 fold change” value worked out at 0.395.

For RRIRWRPPRLPRPRPRPQPSPRP, the “shrunken log2 fold change” value amounted to 0.287.

As to RRIRQRPPRLPRPRPRPWSRPRP, the “shrunken log2 fold change” value came to 0.00812.

Turning to RRIRERPPRLPRPRPRPCIDPRP, the “shrunken log2 fold change” value is -0.00146.

In the case of RRIRQRPPRLPRPRPRPKIEPRP, the “shrunken log2 fold change” value was -0.32.

Take RRIRTRPPRLPRPRPRPWNIPRP: the “shrunken log2 fold change” value was 0.0303.

RRIRNRPPRLPRPRPRPSEKPRP: the “shrunken log2 fold change” value is -0.0315.

On to RRIRMRPPRLPRPRPRPCCHPRP, for which the “shrunken log2 fold change” value amounted to 0.0146.

As to RRIRDRPPRLPRPRPRPLCRPRP, the “shrunken log2 fold change” value is -0.0528.

As for RRIRARPPRLPRPRPRPLVCPRP, the “shrunken log2 fold change” value came to 0.483.

As to RRIRPRPPRLPRPRPRPAGNPRP, the “shrunken log2 fold change” value is 0.194.

As to RRIRKRPPRLPRPRPRPDSFPRP, the “shrunken log2 fold change” value is -0.115.

Turning to RRIRLRPPRLPRPRPRPTVCPRP, the “shrunken log2 fold change” value was -0.0284.

As for RRIRCRPPRLPRPRPRPQWFPRP, the “shrunken log2 fold change” value was -0.106.

Consider RRIRVRPPRLPRPRPRPRMWPRP, for which the “shrunken log2 fold change” value came to 0.271.

Consider RRIRSRPPRLPRPRPRPMQMPRP, for which the “shrunken log2 fold change” value came to 0.512.

Regarding RRIRSRPPRLPRPRPRPCNCPRP, the “shrunken log2 fold change” value was 0.0508.

As for RRIRPRPPRLPRPRPRPHAKPRP, the “shrunken log2 fold change” value was 1.39.

Regarding RRIRTRPPRLPRPRPRPAMTPRP, the “shrunken log2 fold change” value came to 0.126.

Regarding RRIRIRPPRLPRPRPRPIKRPRP, the “shrunken log2 fold change” value was -0.0331.

In the case of RRIRRRPPRLPRPRPRPNGIPRP, the “shrunken log2 fold change” value was -0.0555.

For RRIRDRPPRLPRPRPRPDPEPRP, the “shrunken log2 fold change” value is 0.0311.

RRIRGRPPRLPRPRPRPPQPPRP: the “shrunken log2 fold change” value is 1.03.

With RRIRARPPRLPRPRPRPNPFPRP, the “shrunken log2 fold change” value is -0.0899.

As to RRIRTRPPRLPRPRPRPAQEPRP, the “shrunken log2 fold change” value was -0.00523.

In the case of RRIRRRPPRLPRPRPRPGTKPRP, the “shrunken log2 fold change” value is 0.0056.

With RRIRPRPPRLPRPRPRPPAIPRP, the “shrunken log2 fold change” value was determined as 0.325.

With RRIRVRPPRLPRPRPRPDSEPRP, the “shrunken log2 fold change” value is -0.105.

As for RRIRLRPPRLPRPRPRPRAYPRP, the “shrunken log2 fold change” value amounted to 0.0155.

For the sequence RRIRPRPPRLPRPRPRPCRMPRP, the “shrunken log2 fold change” value was -0.0012.

RRIRERPPRLPRPRPRPDERPRP: the “shrunken log2 fold change” value turned out to be 0.109.

Turning to RRIRVRPPRLPRPRPRPWLQPRP, the “shrunken log2 fold change” value was -0.0274.

As to RRIRPRPPRLPRPRPRPKALPRP, the “shrunken log2 fold change” value is 0.461.

In the case of RRIRNRPPRLPRPRPRPIKWPRP, the “shrunken log2 fold change” value was -0.498.

For the sequence RRIRHRPPRLPRPRPRPCASPRP, the “shrunken log2 fold change” value is -0.028.

For the sequence RRIRIRPPRLPRPRPRPYQPPRP, the “shrunken log2 fold change” value was 0.0299.

Take RRIRGRPPRLPRPRPRPKNNPRP: the “shrunken log2 fold change” value was 0.198.

In the case of RRIRMRPPRLPRPRPRPKYWPRP, the “shrunken log2 fold change” value is 0.164.

For the sequence RRIRGRPPRLPRPRPRPTHFPRP, the “shrunken log2 fold change” value is 0.71.

Regarding RRIRKRPPRLPRPRPRPDKKPRP, the “shrunken log2 fold change” value was -0.117.

As to RRIRQRPPRLPRPRPRPTPVPRP, the “shrunken log2 fold change” value was 0.286.

With RRIRIRPPRLPRPRPRPISFPRP, the “shrunken log2 fold change” value is 0.00109.

Consider RRIRQRPPRLPRPRPRPDVFPRP, for which the “shrunken log2 fold change” value is -0.211.

As for RRIRSRPPRLPRPRPRPGMTPRP, the “shrunken log2 fold change” value was -0.105.

For the sequence RRIRKRPPRLPRPRPRPPVSPRP, the “shrunken log2 fold change” value turned out to be 0.0866.

For RRIRARPPRLPRPRPRPLFSPRP, the “shrunken log2 fold change” value is -0.124.

On to RRIRARPPRLPRPRPRPWRPPRP, for which the “shrunken log2 fold change” value came out at 0.348.

With RRIRLRPPRLPRPRPRPHAYPRP, the “shrunken log2 fold change” value was -0.392.

Regarding RRIRYRPPRLPRPRPRPRQVPRP, the “shrunken log2 fold change” value is -0.206.

As for RRIRRRPPRLPRPRPRPLEPPRP, the “shrunken log2 fold change” value was 0.582.

For the sequence RRIRERPPRLPRPRPRPDLRPRP, the “shrunken log2 fold change” value is -0.076.

On to RRIRFRPPRLPRPRPRPVLRPRP, for which the “shrunken log2 fold change” value is 0.113.

On to RRIRTRPPRLPRPRPRPFGVPRP, for which the “shrunken log2 fold change” value was determined as 0.0203.

RRIRGRPPRLPRPRPRPSQGPRP: the “shrunken log2 fold change” value is -0.187.

As to RRIRQRPPRLPRPRPRPRVCPRP, the “shrunken log2 fold change” value came to 0.303.

For RRIRYRPPRLPRPRPRPKDCPRP, the “shrunken log2 fold change” value was -0.494.

Turning to RRIRIRPPRLPRPRPRPLPYPRP, the “shrunken log2 fold change” value is -0.565.

As to RRIRLRPPRLPRPRPRPAEAPRP, the “shrunken log2 fold change” value came to 0.0653.

For the sequence RRIRGRPPRLPRPRPRPGPKPRP, the “shrunken log2 fold change” value was found to be 0.808.

Consider RRIRNRPPRLPRPRPRPTSGPRP, for which the “shrunken log2 fold change” value came to 0.211.

RRIRRRPPRLPRPRPRPVFFPRP: the “shrunken log2 fold change” value turned out to be 0.255.

In the case of RRIRIRPPRLPRPRPRPMMWPRP, the “shrunken log2 fold change” value is -0.00731.

Take RRIRLRPPRLPRPRPRPFLDPRP: the “shrunken log2 fold change” value is -0.228.

In the case of RRIRSRPPRLPRPRPRPQEVPRP, the “shrunken log2 fold change” value is -0.0423.

On to RRIRFRPPRLPRPRPRPIYCPRP, for which the “shrunken log2 fold change” value is -0.0425.

On to RRIRDRPPRLPRPRPRPSVFPRP, for which the “shrunken log2 fold change” value was found to be 0.423.

As for RRIRVRPPRLPRPRPRPDGMPRP, the “shrunken log2 fold change” value is -0.454.

For RRIRARPPRLPRPRPRPGIPPRP, the “shrunken log2 fold change” value was determined as 0.162.

As to RRIRVRPPRLPRPRPRPSNNPRP, the “shrunken log2 fold change” value was -0.662.

As for RRIRGRPPRLPRPRPRPGAFPRP, the “shrunken log2 fold change” value stood at 0.773.

Regarding RRIRPRPPRLPRPRPRPQNWPRP, the “shrunken log2 fold change” value came to 0.0202.

On to RRIRVRPPRLPRPRPRPVCTPRP, for which the “shrunken log2 fold change” value came to 0.165.

Regarding RRIRGRPPRLPRPRPRPHQYPRP, the “shrunken log2 fold change” value was -0.226.

As for RRIRNRPPRLPRPRPRPPWVPRP, the “shrunken log2 fold change” value was -0.0522.

As to RRIRVRPPRLPRPRPRPATAPRP, the “shrunken log2 fold change” value was found to be 0.18.

Turning to RRIRCRPPRLPRPRPRPNRYPRP, the “shrunken log2 fold change” value was -0.137.

Turning to RRIRERPPRLPRPRPRPNICPRP, the “shrunken log2 fold change” value was -0.523.

Consider RRIRTRPPRLPRPRPRPETSPRP, for which the “shrunken log2 fold change” value is 0.199.

For the sequence RRIRLRPPRLPRPRPRPGSDPRP, the “shrunken log2 fold change” value was -0.149.

As for RRIRTRPPRLPRPRPRPGYQPRP, the “shrunken log2 fold change” value is -0.0553.

In the case of RRIRVRPPRLPRPRPRPECMPRP, the “shrunken log2 fold change” value was found to be 0.283.

Consider RRIRIRPPRLPRPRPRPHMQPRP, for which the “shrunken log2 fold change” value is -0.169.

With RRIRERPPRLPRPRPRPGFLPRP, the “shrunken log2 fold change” value was -0.0604.

For RRIRLRPPRLPRPRPRPVVGPRP, the “shrunken log2 fold change” value is 0.103.

Turning to RRIRIRPPRLPRPRPRPMKCPRP, the “shrunken log2 fold change” value was -0.0692.

As to RRIRCRPPRLPRPRPRPCSSPRP, the “shrunken log2 fold change” value turned out to be 0.0866.

Take RRIRIRPPRLPRPRPRPSHLPRP: the “shrunken log2 fold change” value was -0.622.

Consider RRIRSRPPRLPRPRPRPKLLPRP, for which the “shrunken log2 fold change” value was 0.325.

For RRIRARPPRLPRPRPRPGFNPRP, the “shrunken log2 fold change” value was found to be 0.252.
